Among the data in paper PMC3445047 are Km, kcat and kcat/Km values, retold here.

Substrate in this data set: CC(=O)N[C@H]1[C@H](Oc2ccc([N+](=O)[O-])cc2)O[C@H](CO)[C@@H](O)[C@@H]1O
Kind of data set: purified protein. Particulars: pH 5.5, 30 °C.

B1: OfHex2 (Ostrinia furnacalis) (protein)
chain: IYNNNPGPKYPPTKGEVWPKPQYQKLERYYFTVNTSAFKIKATNHTCPILAKAIERYSFIMRNTFNLDLNRKPKTSRHRLPRETNSEDPYYQGLLKELDIELISPCEEYPYFNMDESYELTISTTAKLLSSSIWGILRGLESWSHLLYLTDDKDGVSIDICVNRTHIADFPRYAHRGLLLDTGRHFISMSNILKTLDAMAMNKLNVFHWHIVDDQSFPYQSEKFPDLSGKGAFDPSLVYTKDDIARVVQYATERGIRVLPEFDVPGHTRSWGEAFPNVLTECFSDGKVVGVGPMNPTVNTTYKLFQELMEEVQEWFPDKYFHIGGDEVQFDCWESNPDLQQYMKDHHMTATQLHALFMKNVIPLLGNNTKPIVWQEVFDVGVPLSSDTIIHVWKNGWVEEMVKILKAGHRLIFSASWYLDHLKTGGDWEDMYMADPRLMVNLVDDTAPLDNIVGGEACMWGEVVDDTNVINRVWPRTSAAAERLWSAGLASNSLERNVRLSILDKARHRIEEHACRMRRRAINAQPPNGPGFCVGAKLF
A word on the Km: it is the substrate concentration at which the rate is half of its maximum. As usually defined, the kcat is the number of substrate molecules converted per active site and unit of time at saturation. As usually defined, the kcat/Km is the second-order rate constant that governs catalysis at low substrate concentration. As for B1, the Michaelis-Menten constant (Km) was determined as 463 ± 27 µM, the kcat turned out to be 151 ± 6.21 s⁻¹ and the kcat/Km was determined as 326000 M⁻¹ s⁻¹.
